Assay results reported in PMC6804483 (Acta Pharmaceutica Sinica. B, 2019).
Each block holds one molecule with its values, some of them ahead of it. [ ]: non-standard residue; d: D form. The star is where a group is joined. 5FAM = O=C1OC2(c3ccc(O)cc3Oc3cc(O)ccc32)c2ccc(C(=O)*)cc21; pT = C[C@@H](OP(=O)(O)O)[C@H](N)C(=O)O

Key:
[1] = target: Polo-like kinase 1 (PLK1) Polo-box domain (Homo sapiens, UniProt P53350); experiment: microscale thermophoresis with labeled PLK1 PBD; assay type: binding
PLK2 Polo-box domain = target: T1, PLK2 Polo-box domain (Homo sapiens, UniProt Q9NYY3); experiment: fluorescence polarization competition with fluorescein-labeled phosphopeptide; assay type: binding
T1 sequence (Q9NYY3 355-685): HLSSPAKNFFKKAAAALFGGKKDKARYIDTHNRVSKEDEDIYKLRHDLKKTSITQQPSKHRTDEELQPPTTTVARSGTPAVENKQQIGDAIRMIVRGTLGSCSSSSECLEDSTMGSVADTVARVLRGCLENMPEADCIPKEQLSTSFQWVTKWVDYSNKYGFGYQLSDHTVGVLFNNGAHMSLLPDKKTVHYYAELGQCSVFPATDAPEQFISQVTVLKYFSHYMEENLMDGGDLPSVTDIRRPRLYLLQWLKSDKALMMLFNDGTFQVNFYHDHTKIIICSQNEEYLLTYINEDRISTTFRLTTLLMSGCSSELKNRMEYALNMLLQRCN

[2] = target: T2, Polo-box domain (PBD) of human PLK2 (aa 355–685) (human, UniProt Q9NYY3 355-685); experiment: fluorescence polarisation
T2 sequence (looked up): T1 sequence (Q9NYY3 355-685)

[3] = target: Polo-box domain (PBD) of human PLK1 (aa 326–603) (human, UniProt P53350 326-603); experiment: fluorescence polarisation
[4] = target: T3, Polo-box domain (PBD) of human PLK3 (aa 335–646) (human, UniProt Q9H4B4 335-646); experiment: fluorescence polarisation
T3 sequence (looked up): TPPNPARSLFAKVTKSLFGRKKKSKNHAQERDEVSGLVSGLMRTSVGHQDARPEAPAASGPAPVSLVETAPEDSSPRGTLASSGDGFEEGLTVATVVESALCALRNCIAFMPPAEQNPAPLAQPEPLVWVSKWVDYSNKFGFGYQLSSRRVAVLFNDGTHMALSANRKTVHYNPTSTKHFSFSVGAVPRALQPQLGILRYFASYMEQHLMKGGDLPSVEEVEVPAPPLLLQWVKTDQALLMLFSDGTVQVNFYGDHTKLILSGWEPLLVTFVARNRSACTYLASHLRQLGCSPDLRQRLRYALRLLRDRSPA

Polo-box domain (PBD) of human PLK1 (aa 326–603), sequence (P53350 326-603): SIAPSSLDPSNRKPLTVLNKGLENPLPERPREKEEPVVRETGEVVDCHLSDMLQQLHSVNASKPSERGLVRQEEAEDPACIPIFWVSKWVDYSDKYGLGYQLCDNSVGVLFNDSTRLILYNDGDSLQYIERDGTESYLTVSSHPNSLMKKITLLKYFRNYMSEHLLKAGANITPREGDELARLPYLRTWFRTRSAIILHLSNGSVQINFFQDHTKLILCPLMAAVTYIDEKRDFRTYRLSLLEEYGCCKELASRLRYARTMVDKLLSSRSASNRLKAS
Polo-like kinase 1 (PLK1) Polo-box domain, sequence (P53350 326-603): as above

Kd [1]: 18.9 µM
IC50 (PLK2 Polo-box domain): 44.1 ± 14.4 µM
Molecule: CCOC(=O)c1oc2ccccc2c1CBr [MCC1019, 3-bromomethyl-benzofuran-2-carboxylic acid ethyl ester]

binding result [2]: binds
B1: 5-carboxyfluorescein-GPMQTSpTPKNG-OH (peptide)
peptide: 5FAM-GPMQTS[pT]PKNG-OH
SMILES: CSCC[C@H](NC(=O)[C@@H]1CCCN1C(=O)CNC(=O)c1ccc2c(c1)C(=O)OC21c2ccc(O)cc2Oc2cc(O)ccc21)C(=O)N[C@@H](CCC(N)=O)C(=O)N[C@H](C(=O)N[C@@H](CO)C(=O)N[C@H](C(=O)N1CCC[C@H]1C(=O)N[C@@H](CCCCN)C(=O)N[C@@H](CC(N)=O)C(=O)NCC(=O)O)[C@@H](C)OP(=O)(O)O)[C@@H](C)O

binding result [3]: binds
B2: 5-carboxyfluorescein-GPMQSpTPLNG-OH (peptide)
peptide: 5FAM-GPMQS[pT]PLNG-OH
SMILES: CSCC[C@H](NC(=O)[C@@H]1CCCN1C(=O)CNC(=O)c1ccc2c(c1)C(=O)OC21c2ccc(O)cc2Oc2cc(O)ccc21)C(=O)N[C@@H](CCC(N)=O)C(=O)N[C@@H](CO)C(=O)N[C@H](C(=O)N1CCC[C@H]1C(=O)N[C@@H](CC(C)C)C(=O)N[C@@H](CC(N)=O)C(=O)NCC(=O)O)[C@@H](C)OP(=O)(O)O

binding result [4]: binds
B3: 5-carboxyfluorescein-GPLATSpTPKNG-OH (peptide)
peptide: 5FAM-GPLATS[pT]PKNG-OH
SMILES: CC(C)C[C@H](NC(=O)[C@@H]1CCCN1C(=O)CNC(=O)c1ccc2c(c1)C(=O)OC21c2ccc(O)cc2Oc2cc(O)ccc21)C(=O)N[C@@H](C)C(=O)N[C@H](C(=O)N[C@@H](CO)C(=O)N[C@H](C(=O)N1CCC[C@H]1C(=O)N[C@@H](CCCCN)C(=O)N[C@@H](CC(N)=O)C(=O)NCC(=O)O)[C@@H](C)OP(=O)(O)O)[C@@H](C)O
